Measured values published in US20230399416A1 (MIRIMGENE, published 2023).

What was measured:
[1] = molecular target: T1, human WARS1 recombinant protein (human, UniProt P23381 1-471, limits assumed); assay: SPR, Biacore T200, CM5 chip, serially diluted GKB101 injected
T1 construct: In the immunoblot the endogenous WARS1 of THP-1 human monocytes was also detected; also called human recombinant protein; tryptophanyl-tRNA synthetase 1, cytoplasmic
T1 sequence (looked up): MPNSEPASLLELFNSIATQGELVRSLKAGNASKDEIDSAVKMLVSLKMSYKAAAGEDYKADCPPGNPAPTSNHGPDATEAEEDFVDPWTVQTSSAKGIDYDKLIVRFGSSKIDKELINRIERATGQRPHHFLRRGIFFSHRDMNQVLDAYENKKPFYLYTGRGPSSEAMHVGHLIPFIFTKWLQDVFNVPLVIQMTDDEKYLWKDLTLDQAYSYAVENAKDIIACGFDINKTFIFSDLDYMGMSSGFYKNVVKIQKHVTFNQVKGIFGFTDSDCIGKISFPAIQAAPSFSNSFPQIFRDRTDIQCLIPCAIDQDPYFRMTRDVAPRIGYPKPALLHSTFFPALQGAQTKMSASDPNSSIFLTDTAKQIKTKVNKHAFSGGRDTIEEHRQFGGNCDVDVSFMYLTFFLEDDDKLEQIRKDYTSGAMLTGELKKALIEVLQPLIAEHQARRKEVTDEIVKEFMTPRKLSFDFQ
Method: (§1) 1) SPR: Binding ability was measured using Series S Sensor CM5 Chip (GE Healthcare Life Sciences) and GE Bioacore T200. A HBS-EP buffer (GE Healthcare Life Sciences) was used. After injecting serially diluted GKB101 or buffer for 1-10 minutes at a flow rate of 30 μL/min, the analyte was washed for 20 minutes.

[2] = molecular target: T2, mouse WARS1 recombinant protein (mouse, UniProt P32921 1-481, limits assumed); assay: as above
T2 construct: In the immunoblot the endogenous WARS1 of J774.1A mouse macrophages was also detected; also called mouse recombinant protein
T2 sequence (looked up): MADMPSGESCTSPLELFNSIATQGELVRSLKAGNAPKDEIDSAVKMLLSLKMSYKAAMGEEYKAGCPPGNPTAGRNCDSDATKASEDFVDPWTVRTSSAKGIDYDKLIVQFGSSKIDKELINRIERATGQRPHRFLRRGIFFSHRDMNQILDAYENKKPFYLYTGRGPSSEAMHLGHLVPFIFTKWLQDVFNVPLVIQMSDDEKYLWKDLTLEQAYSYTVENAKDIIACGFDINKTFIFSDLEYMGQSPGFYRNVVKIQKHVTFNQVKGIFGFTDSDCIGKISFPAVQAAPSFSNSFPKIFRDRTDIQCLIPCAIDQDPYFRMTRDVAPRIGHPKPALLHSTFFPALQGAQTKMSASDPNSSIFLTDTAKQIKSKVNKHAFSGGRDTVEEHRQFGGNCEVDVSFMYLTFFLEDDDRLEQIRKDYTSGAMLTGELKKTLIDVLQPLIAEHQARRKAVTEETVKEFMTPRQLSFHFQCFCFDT
Method: as §1

B1: GKB101 (antibody, IgG1, V domains shown)
VH: EVQLLESGGGLVQPGGSLRLSCAASGFTFSSYDMSWVRQAPGKGLEWVSAISSGGSSIYYADSVKGRFTISRDNSKNTLYLQMNSLRAEDTAVYYCARDVAWDMLGDFDYWGQGTLVTVSS
VL: QSVLTQPPSASGTPGQRVTISCTGSSSNIGSNYVYWYQQLPGTAPKLLIYANSHRPSGVPDRFSGSKSGTSASLAISGLRSEDEADYYCGAWDDSLSAYVFGGGTKLTVTV
notes: IgG1 made from the selected scFv with the constant regions of herceptin expression vectors, expressed in Expi293F cells; Joined as printed they may lack a few residues at the junctions (VL/CL, CH2/CH3) and at the C-terminus of CH3; also called WARS1-specific antibody; anti-WARS1 antibody
Kd [1]: ~0.2 nM
Kd [2]: ~3.76 nM
